Test [1] deals with His6-TRX-PfPPR1 (Plasmodium falciparum apicoplast pentatricopeptide repeat protein 1, with His6-TRX tag) (Plasmodium falciparum). The experiment in a line: SEC. A general note: Size exclusion chromatography separates by hydrodynamic size, large species first.
The target of test [2] is PfPPR1 minus the His6-TRX tag (tag cleaved by HRV 3C protease) (Plasmodium falciparum). The experiment in a line: AUC.

By stoichiometry N is commonly meant the number of molecules, sites or subunits per partner or assembly. As to “His6-TRX-PfPPR1 (Plasmodium falciparum apicoplast pentatricopeptide repeat protein 1, with His6-TRX tag) (natural protein)”, the stoichiometry N in test [1] is 2.

Regarding “PfPPR1 minus the His6-TRX tag (tag cleaved by HRV 3C protease) (natural protein)”, the stoichiometry N in test [2] amounted to 2.

Values taken from article doi:10.1101/388728.
